These results are taken from paper PMC7938805, “Biophysical and biochemical properties of Deup1 self-assemblies: a potential driver for deuterosome formation during multiciliogenesis” (Biology Open, 2021).

The series concerns the molecule itself. The series is described as follows: fluorescence microscopy of assemblies of purified protein; purified fluorescent protein (100 nM where stated) in 50 mM Tris pH 7.5, 150 mM NaCl, 1.5% glycerol with PEG8000 (up to 6%) or BSA 300 mg/ml as crowding agent, RT 10 min, confocal imaging.

B1: mScarlet I-Deup1 (deuterosome protein 1, mouse, longer isoform) (natural protein, UniProt Q7M6Y5-1 1-601, looked up)
chain: MENQAHTTAGASPCEAELQELMEQIDIMVSNKKLDWERKMRALETRLDLRDQELANAQTCLDQKGQEVGLLRQKLDSLEKCNLVMTQNYEGQLQTLKAQFSKLTSNFEKLRLHQMKQNQIHRKESSSKEELPFELSSLNQKLEEFRAKSREWDKQEVLYQTHLVSLDAQQKLLSEKCSQFQKQAQNYQTQLNGKKQCAEDSSSEIPRLVCESDPGCEATQRDEFIIEKLKSAVSEIALSRNKLQDENQKLLQELKMYQRQCQAMEAGLSEVKSELQSRDDLLRIIEMERLHLHRELLRMGEVQTAQDNRKRVESSYSPSPKEAERKRKELFPMVSDQPNHEKELSKMRSQLYQEEGLCSEQERLRSEISELTQELHQKEVTIATVMKKAALLERQLKIELEIKERMLAKQQVSDRRYKAVRTENTHLKGMMGDLDPARYLAVDLSNKKHSQCTSINKLEYENERLRSDLAKLHGNGKAAWPNQSSYGEAGAYVFQSQLKTETSGDRISQDCELNRSPTPLSPLPFQTKEMASPLVGDNEVLALSPPDISFRASLAAQHFLMEEERRAKELEKLLNTHIDELQRHTEFTLNKYTKLKQSRHI
notes: Deuterosome protein 1 (Deup1), mouse, longer isoform NP_001360846, cloned from a mouse lung cDNA library with primers from the start to the stop codon; 601 residues by the fragment limits; Expressed from pGEX 6p-1 modified with a C-terminal 6xHis tag and a TEV site; also called mS-Deup1; full-length Deup1; source: E. coli BL21 gold (DE3), purified (Ni-NTA, glutathione sepharose, eluted with …)
As for B1, the binding result is given as “binds”.

B2: mScarlet I-Deup1 N-terminus fragment (1-466 a.a.) (domain or fragment, mouse, UniProt Q7M6Y5-1 1-466, looked up)
chain: MENQAHTTAGASPCEAELQELMEQIDIMVSNKKLDWERKMRALETRLDLRDQELANAQTCLDQKGQEVGLLRQKLDSLEKCNLVMTQNYEGQLQTLKAQFSKLTSNFEKLRLHQMKQNQIHRKESSSKEELPFELSSLNQKLEEFRAKSREWDKQEVLYQTHLVSLDAQQKLLSEKCSQFQKQAQNYQTQLNGKKQCAEDSSSEIPRLVCESDPGCEATQRDEFIIEKLKSAVSEIALSRNKLQDENQKLLQELKMYQRQCQAMEAGLSEVKSELQSRDDLLRIIEMERLHLHRELLRMGEVQTAQDNRKRVESSYSPSPKEAERKRKELFPMVSDQPNHEKELSKMRSQLYQEEGLCSEQERLRSEISELTQELHQKEVTIATVMKKAALLERQLKIELEIKERMLAKQQVSDRRYKAVRTENTHLKGMMGDLDPARYLAVDLSNKKHSQCTSINKLEYENERLR
notes: Deuterosome protein 1 (Deup1), mouse, longer isoform NP_001360846, residues 1-466, with multiple coiled coil domains; source: E. coli BL21 gold (DE3), purified (Ni-NTA, glutathione sepharose, eluted with PreScission and TEV protease); not shown: GST, N-terminal, cleaved; mScarlet I, N-terminal, kept; His6, C-terminal, cleaved
As to B2, the binding result was “binds”.
